The source of these data is patent publication US20150005368.

Where only a bound is given, the exact number is not on record here.

The target of the series is ERBB2 (HER2) (Homo sapiens?) (UniProt P04626). The series can be described thus: filter. The note with it: for Kd: same buffer, 37 C.

On to “ATGTTAGAGTTTGCCTGAGTGCCTCGCAAGGGCGTAACAA [AP001-24 (1194-34, #11 short)]”, for which, under “6 (n) = NapdU [n positions 2,4,5,10,11,12,16,20,24,35 = modified dU], affinity for ERBB2 relative to EGFR, curve in figure only”, the selectivity ratio (ERBB2 over EGFR affinity) was greater than 1000 fold.

The term Kd denotes the equilibrium constant for the complex coming apart. Low readings indicate higher affinity, high ones lower affinity. The sequence “GAGTGACCGTCTGCCTGATGTTAGAGTTTGCCTGAGTGCCTCGCAAGGGCGTAACAACAGCCACACCACCAGCC [clone #11 (1194-2, 9-ER-N-B12_C06)]” yielded a dissociation constant Kd (6 (n) = NapdU [n positions 19,21,22,27,28,29,33,37,41,52 = modified dU], Bmax 0.29) of 3.06 nM.

For “GAGTGACCGTCTGCCTGGTCTGAACACCGAGATTAGCCGAACGAACGGTATGGACGTCAGCCACACCACCAGCC [clone #33 (9-ER-N-F02_A09)]”, the Kd (6 (n) in core = NapdU [n positions 19,21,33,34,49,51,57 = modified dU], Bmax only 0.03) is 9.79 nM.

For the setting “6 (n) in core = NapdU [n positions 19,20,25,34,48,50,52 = modified dU], Bmax 0.25”, “GAGTGACCGTCTGCCTGGTTAGACTGAACGCACTGAGGGCCGCAGCCTATCTGAAGGCAGCCACACCACCAGCC [clone #10 (9-ER-N-B09_B06)]” came in with a Kd of 3.71 nM.
